Data taken from article PMC2896474, “Thioredoxin A Active-Site Mutants Form Mixed Disulfide Dimers That Resemble Enzyme–Substrate Reaction Intermediates” (Journal of Molecular Biology, 2008).

Target: the molecule itself
Assay: nonreducing SDS-PAGE + capillary gel electrophoresis (2100 Bioanalyzer); purified His6-tagged BsTrxA proteins alone, ~2.5 μg a lane, nonreducing conditions (no DTT, no AMS); peak integration for dimer-to-monomer ratios; dimer to monomers (Fig. 2a)

Protein | stoichiometry N
C32S single-mutant BsTrxA, C-terminal His6-tag (enzyme, B. subtilis 168, UniProt P14949 1-104, looked up, In the homodimer the two chains are joined by a Cys29-Cys29 disulfide bond (crystal structure 2VOC); Vector probably adds Leu-Glu before His6 (surmised); also called C32S BsTrxA; TrxA C32S; source: E. coli BL21(DE3), purified (nickel IMAC HisTrap HP, Superdex 75 gel filtration); not shown: His6, C-terminal, kept) MAIVKATDQSFSAETSEGVVLADFWAPWCGPSKMIAPVLEELDQEMGDKLKIVKIDVDENQETAGKYGVMSIPTLLVLKDGEVVETSVGFKPKEALQELVNKHL | 2
C29S single-mutant BsTrxA, C-terminal His6-tag (enzyme, B. subtilis 168, UniProt P14949 1-104, looked up, Vector probably adds Leu-Glu before His6 (surmised); also called C29S BsTrxA; BsTrxA(C29S); source: E. coli BL21(DE3), purified (nickel IMAC HisTrap HP, Superdex 75 gel filtration); not shown: His6, C-terminal, kept) MAIVKATDQSFSAETSEGVVLADFWAPWSGPCKMIAPVLEELDQEMGDKLKIVKIDVDENQETAGKYGVMSIPTLLVLKDGEVVETSVGFKPKEALQELVNKHL | 2
